In one assay the target is T1, C5/D5 Fab.
T1 construct: Prepared by papain digestion of C5/D5; also called C5/D5 Fab fragment
As to the kind of experiment: competition ELISA: C5/D5 Fab (1 µg/ml) on coated purified CD47 with increasing peptide. Here is the method: Figure 5: FIG. 5 is a graph that illustrates the effect of synthetic peptide C5/D5.1 ([…]) (SEQ. ID NO: 2) and control peptide C5/D5.4 ([…]) (SEQ. ID NO: 34), C5/D5.11 ([…]) (SEQ. ID NO: 36) and C5/D5.12 ([…]) (SEQ. ID NO: 6) on binding of C5/D5 Fab to CD47. CD47 was purified from human PMN or RBC as previously described (Liu, et al., Journal of Biological Chemistry, 277(12): 10028-36, 2002). The experiments were performed by coating microtiter plates with purified CD47 (in 1% octylglucoside containing buffer, used as 1:50 dilution) for 2 hour (hr). After blocking, C5/D5 Fab (1 µg/ml) was added without or with increasing amount of peptides. C5/D5 Fab binding was detected by a peroxidase conjugated goat anti-mouse secondary antibody. The data represent the mean and the standard deviation of triplicate wells.
To confirm that peptide C5/D5.1 simulates the natural epitope of CD47 recognized by mAb C5/D5, experiments were performed to test if this peptide can compete with CD47 in binding to C5/D5. Purified human CD47 from PMN and RBC was used to coat microtiter plates followed by incubation with C5/D5 Fab (1 μg/ml) either in the absence or presence of increasing amount C5/D5.1 or other control peptides. […] In contrast, control peptides, including C5/D5.11 (SEQ ID NO:36) and C5/D5.12 (SEQ ID NO:6) had no inhibition at concentrations up to 10 mM (FIG. 5). […]

In assay [1] the target is T2, SIRPα1-GST: extracellular domain of SIRPα1 fused to GST (UniProt P78324 31-373).
T2 construct: extracellular domain; Produced in 293E cells as in Seiffert et al; also called SIRPα-GST; SIRP-GST; not shown: glutathione S-transferase (GST)
T2 sequence (P78324 31-373): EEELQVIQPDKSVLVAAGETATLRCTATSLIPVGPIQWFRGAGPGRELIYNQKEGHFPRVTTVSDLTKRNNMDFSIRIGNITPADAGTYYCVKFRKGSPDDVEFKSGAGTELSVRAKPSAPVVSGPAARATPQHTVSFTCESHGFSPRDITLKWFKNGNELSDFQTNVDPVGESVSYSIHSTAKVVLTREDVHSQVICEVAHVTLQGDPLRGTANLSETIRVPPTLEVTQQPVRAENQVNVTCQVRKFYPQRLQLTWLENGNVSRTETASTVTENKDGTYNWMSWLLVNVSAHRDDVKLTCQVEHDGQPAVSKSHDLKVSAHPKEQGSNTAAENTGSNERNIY
As to the kind of experiment: plate binding assay, JAM-AP and SIRPα-GST.

The target of assay [2] is T2, SIRPα1-GST: extracellular domain of …. Briefly: direct binding of synthetic peptide.

Bridges are numbered along the chain shown (N, C = ends). Where no end group is shown, it is not given here.

For CERVIGTGWVRC (disulfide 1-12 (inferred)) [synthetic peptide C5/D5.1 (CERVIGTGWVRC)], the IC50 (commonly the midpoint of a concentration-inhibition curve) with C5/D5 Fab came out at 3.8 mM.

B1: JAM-AP: extracellular domain of junctional adhesion molecule (JAM) fused to alkaline phosphatase (other, UniProt Q9Y624 28-238, looked up)
chain: SVTVHSSEPEVRIPENNPVKLSCAYSGFSSPRVEWKFDQGDTTRLVCYNNKITASYEDRVTFLPTGITFKSVTREDTGTYTCMVSEEGGNSYGEVKVKLIVLVPPSKPTVNIPSSATIGNRAVLTCSEQDGSPPSEYTWFKDGIVMPTNPKSTRAFSNSSYVLNPTTGELVFDPLSASDTGEYSCEARNGYGTPMTSNAVRMEAVERNVGV
notes: extracellular domain; Control AP fusion protein; not shown: alkaline phosphatase (as in CD47-AP)
On to B1, for which, in assay [1], the binding result is “no binding”. With SSAKIEVSQLLK [linear CD47 peptide comprising SSAKIEVSQLLK (aa82-93 of SEQ ID NO: 9)], the binding result in assay [2] is reported as “no binding”.

On to EVTELTREG [linear CD47 peptide comprising EVTELTREG (aa115-123 of SEQ ID NO: 9)], for which, in assay [2], the binding result is “no binding”.

(Values after patent US7282556 (EMORY UNIVERSITY, dated 2007).)
